The values below come from patent US11203621B2, “PH-responsive proteolysis probe” (RIKEN, priority 2015, dated 2021).

One data set has as its system pepsin. Nature of the data set: Resistance to degradation by acidic protease (incubation in pH 7.0 / pH 4.0 / pH 4.0 + pepsin buffers). It is filed as physicochemical. The method, then: An Escherichia coli test was conducted which included a treatment of incubating purified recombinant proteins in each of three reaction buffers (pH 7.0/no pepsin, pH 4.0/no pepsin, pH 4.0/0.05% pepsin). The reaction buffers had been prepared as 25 mM HEPES buffer (pH 7.0) or 25 mM acetic acid buffer (pH 4.0) (119 mM NaCl, 2.5 mM KCl, 2 mM CaCl2, 2 mM MgCl2, and 30 mM glucose). A mixture obtained by adding each purified protein to each of the reaction buffers was incubated at 37° C. for 2 hours. The mixture was divided into two, each of which was then subjected to fluorescence intensity measurement and western blotting. The fluorescence intensity measurement was conducted after the pH of the mixture was prepared by diluting the mixture by 200 folds with use of a buffer at pH 7.0. For detection of a protein by means of western blotting, the following antibodies were used. AFFP: a rabbit anti-Azami-Green antibody (MBL, PM052M). EGFP and Ypet: a rabbit anti-GFP antibody (CST, #2555).
With use of SRAI/pRSETB, the same procedure as the fluorescence intensity measurement in the item <Confirmation of resistance to degradation by acidic protease> was carried out. Fluorescence intensity measurement was conducted by irradiating the AFFP part in SRAI with excitation light of 410 nm and irradiating the Ypet part in SRAI with excitation light of 500 nm.
Experiments were conducted to determine whether or not a probe (Rosella) reported by Rosado et al. was suitable for measuring autophagy as compared with SRAI. A construct of Rosella was expressed in Escherichia coli, and a recombinant fluorescent protein was purified. The recombinant fluorescent protein was incubated for 2 hours at 37° C. in a reaction buffer at pH 7.0, a reaction buffer at pH 4.0 (with 0.05% pepsin), and a reaction buffer at pH 4.0 (without 0.05% pepsin) in accordance with a previous report (Katayama, H, et al. (2008) Cell Struct. Funct. 33, 1-12), and was subjected to fluorescence measurement. Before the fluorescence measurement, pHs of these samples were adjusted to coincide with each other by diluting each sample with a buffer (pH 7.0) by 200 folds. The reaction buffers had each been prepared as 25 mM HEPES buffer (pH 7.0) or 25 mM acetic acid buffer (pH 4.0) (119 mM NaCl, 2.5 mM KCl, 2 mM CaCl2, 2 mM MgCl2, and 30 mM Glucose).

Data set [1] deals with MEF cells. Nature of the data set: Detection of autophagy in fixed mammalian cells. As to conditions: MEF cells fixed 15 minutes in PBS containing 4% PFA. It counts as cell-based, Mouse. The protocol: Subsequently, examination was conducted to examine whether or not SRAI would detection of autophagy also in fixed cells. The same operations as those of the autophagy detection above were conducted, except that (i) only SRAI was observed and (ii) after observation of living cells, the cells were fixed and observed again in the same field of view. The living cells were fixed for 15 minutes at room temperature in PBS containing 4% PFA, and cells thus fixed were subjected to washing with use of HBSS (5 minutes×3 times) and then subjected to observation for the second time.

For data set [2], the system named is MEF cells. The experiment in a line: Detection of autophagy in mammalian cells (ratio imaging). Conditions: living MEF cells, HBSS 37° C. 2 hours. It counts as cell-based, Mouse. The protocol: SRAI/pcDNA3 was introduced into MEF cells so as to express SRAI therein, and whether or not SRAI was suitable for observation of autophagy was evaluated. As a control, mCherry-EGFP was used. In order for mCherry-EGFP to be equivalent to an amino acid sequence presented in a previous report (Elsa-Noah N'Diaye, et al., (2009) EMBO reports 10, 173-179), (i) a BamHI/HindIII fragment of mCherry, which fragment contained no stop codon, (ii) a HindIII/EcoRI fragment of EGFP, in which fragment cDNA encoding a linker ([…]) (SEQ ID NO: 6) at N-terminus was added, and (iii) a BamHI/EcoRI fragment of pcDNA3 were ligated with each other, thereby producing mCherry-EGFP/pcDNA3. […]
In imaging, Cool SNAP HQ2 (Photometrics) was used as a camera, UplanF1 40× oil N.A.1.30 (Olympus) was used as an objective lens, and U-MCFPH Q (for AFFP), U-MYFPH Q (for Ypet), U-MRFPH Q (for mCherry), and U-MGFPH Q (for EGFP) were used as filter cubes (each cube is manufactured by Olympus). Images were obtained and analyzed with use of MetaMorph (Universal Imaging Corporation). […]
Further, Rosella was introduced into MEF cells in an attempt to visualize and detect autophagy. […] Images were obtained and analyzed with use of MetaMorph (Universal Imaging Corporation), and ratio images were produced as DsRed.T3/SE P in IMD display in a range of 0 to 1 (the scale bar for FIG. 12 is 20 μm).

In data set [3] the test system is MEF cells. Nature of the data set: Detection of mitophagy in mammalian cells using mt-SRAI′. As to conditions: 30 μM CCCP, 18 hours, MEF cells with mCherry-Parkin, compared to before addition. It counts as cell-based, Mouse. The protocol:
A construct that expresses mt-SRAI′ was introduced into MEF cells, in an attempt to visualize and detect mitophagy. mt-SRAI/pMCSTRE3G, pEF1α-Tet3G, and mCherry-Parkin/pcDNA3 which is a factor necessary for mitophagy, were introduced, each in an amount of 0.5 μg, into MEF cells with use of Lipofectamine (Registered Trademark) 2000. Six hours after the introduction, the medium was replaced by a nutrient medium containing 1 μg/ml doxycycline. Twenty-four hours later, induction of expression was stopped, and the nutrient medium was replaced by a nutrient medium containing no doxycycline, so that localization and degradation of a probe remaining in the cytoplasm was encouraged. Eighteen hours later, mitophagy was induced with use of 30 μM carbonyl cyanide m-chlorophenylhydrazone (CCCP), and then 18 hours later, the cells were subjected to imaging. […] In performing the imaging and obtaining and analyzing the images, the same conditions as those for the detection of autophagy in fixed mammalian cells were applied. Ratio images were generated in IMD display in a range of 0 to 0.4.

Data set [4] in a line: Escherichia coli test: pH dependency of fluorescence intensity. It counts as physicochemical. The method, then:
As a control for AFFP, a protein was selected as appropriate from green fluorescent proteins (EGFP and Sapphire), a yellow fluorescent protein (Ypet), and red fluorescent proteins (mCherry and Tag-RFP).
With use of EGFP and mCherry as controls, an Escherichia coli test was conducted to examine pH dependency of a change in fluorescence intensity of AFFP. In the Escherichia coli test, fluorescence intensity of a purified recombinant protein obtained was measured under nine pH conditions ranging from pH 4.0 to 8.0 with an increment of 0.5. The fluorescence intensity of each fluorescent protein under each pH condition was plotted. Note that the plotting was performed in such a manner that a maximum fluorescence intensity of each fluorescent protein was set to 1, and fluorescence intensities of the fluorescent protein under other pH conditions were plotted as relative values with respect to 1.
With use of EGFP, Sapphire, Ypet, mCherry, and Tag-RFP as controls, an Escherichia coli test was conducted to examine pH dependency of a change in fluorescence intensity of AFFP. In the Escherichia coli test, fluorescence intensities in respective cases of pH 7.0 and pH 4.0 were measured. Then, fluorescence intensities of the fluorescent proteins under the two pH conditions were compared. Note that the fluorescence intensity of each protein at pH 7.0 was set to 1. […]

Data set [5] in a line: Escherichia coli test: fluorescence intensity of purified recombinant proteins. It counts as physicochemical. Conditions: expressed at 18° C., buffer at pH 7.0, equal protein concentration. The protocol: AFFP and mAG407 were expressed in Escherichia coli (18° C.) and a mammalian cell (Mouse embryonic fibroblast (MEF) cell) (37° C.) so as to be compared with each other in terms of fluorescence intensity. Comparison of fluorescence intensity between AFFP and mAG407 which were expressed in Escherichia coli was conducted in accordance with a previous report (Katayama, H, et al., (2008) Cell Struct. Funct. 33, 1-12). The concentrations of purified recombinant proteins were adjusted to coincide with each other, and the fluorescence intensity of each fluorescent protein was measured in a buffer at pH 7.0. A test conducted with respect to a protein expressed in Escherichia coli in accordance with the aforementioned Katayama, H, et al. will be hereinafter simply referred to as “Escherichia coli test.”
Both in the Escherichia coli test and the MEF cell test, AFFP was excited with use of excitation light having an excitation peak wavelength (406 nm) and mAG407 was excited with use of excitation light having an excitation peak wavelength (407 nm), in the measurement of fluorescence intensity. Further, both in the Escherichia coli test and the MEF cell test, the intensity of fluorescence emitted from AFFP was set to 1 in numerical representation and plotting of fluorescence intensity.

[6] abbreviates: acidic condition (pH 4.0/no pepsin).
[7] abbreviates: acidic condition with pepsin added (pH 4.0/0.05% pepsin).
The mark [8] stands for this setting: neutral condition (pH 7.0/no pepsin).

On to “SRAI: FRET probe obtained by ligating Ypet, a (GGGGS)3 linker, and AFFP in this order”, for which the figures for the “fluorescence spectrum, excitation 410 nm” value in the data set on pepsin (setting [6]), in the data set on pepsin (setting [7]) and with pepsin (setting [8]) were “reduction in peak of fluorescence from Ypet”, “only a single peak that was based on fluorescence from AFFP” and “two peaks”, respectively. Moreover, the entries for the “fluorescence spectrum, excitation 500 nm” value with pepsin (setting [6]), in the data set on pepsin (setting [7]) and in the data set with pepsin (setting [8]) were “single weak peak”, “no fluorescence” and “single intense peak”, respectively. Besides, in the data set on MEF cells [1], the “autophagy signal before and after fixation” value is reported as “little change was observed”. In the data set on MEF cells [2], the “autophagy signal (bright points, high-ratio structures in ratio image)” value is “a bright point (dot) and a red point in a ratio image were observed”.
For the molecule `N#CC(C#N)=NNc1cccc(Cl)c1` [CCCP, carbonyl cyanide m-chlorophenylhydrazone], the “mitophagy induction (red points in ratio images)” value in the data set on MEF cells [3] was “significant increase of red points”.

B1: AFFP: modified mAG407 further having mutations T58S, V60S, T82A, R184S, K199E, Y210C, Y217A; green fluorescent protein used as FRET donor (protein)
chain: MVSVIKPEMKIKLCMRGTVNGHNFVIEGEGKGNPYEGTQILDLNVTEGAPLPFAYDILSTSFQYGNRAFTKYPADIQDYFKQAFPEGYHWERSMTYEDQGICTATSNISMRGDCFFYDIRFDGTNFPPNGPVMQKKTLKWEPDTEKMYVEDGVLKGDVNMRLLLEGGGHYRCDVKTTYKAKKEVSLPDAHKIDHRIEILEHDKDYNKVKLCENAVARASMLPSQAK
With B1, in the data set with pepsin (pH 4.0/0.05% pepsin, 37° C., 2 hours), the “degradation by acidic protease (western blotting, fluorescence)” value was “not degraded by acidic protease”. Besides, the “pH dependency of fluorescence intensity” value in data set [4] (nine pH conditions, pH 4.0 to 8.0, controls EGFP and mCherry) is reported as “substantially constant fluorescence intensity”. The “fluorescence intensity at pH 4.0 versus pH 7.0” value in data set [4] (pH 7.0 set to 1, controls EGFP, Sapphire, Ypet, mCherry, Tag-RFP) is on record as “not affected by a change in pH”. Further, in data set [5], the “fluorescence intensity relative to mAG407” value stood at 2.5 times.
